Reference: patent US20070178093A1

Key:
[1] = biological target: human glucocorticoid-induced tumor necrosis factor family-related receptor (TEASR) (human) (UniProt Q9Y5U5); experiment: cell-based or functional assay
[2] = biological target: fusion protein comprising the extracellular domain of hTEASR and the cytoplasmic region of Fas, expressed on Ba/F3 cells (human) (UniProt Q9Y5U5); experiment: cell-based or functional assay

| Substance | proliferation of CD4+ T cells in the presence of CD32/CD58/CD80 feeder L cells [1] [fold] | proliferation of CD8+ T cells in the presence of CD32 feeder L cells [1] [fold] | apoptotic cell death, 51Cr release from transfected Ba/F3 cells (in the presence of control IgG1) [2] [% release] |
| --- | --- | --- | --- |
| hTEASR-L-Ig fusion protein (from UniProt Q9UNG2 49-177) (Fc fusion) | 2.5 | 5.6 | – |
| human TEASR ligand (TEASR-L) (from UniProt Q9UNG2 1-177) | – | – | 23 |
